For this assay, the target named is jip4_mouse Spag9 (UniProt Q58A65).
UniProt Q58A65, sequence (Q58A65 whole entry): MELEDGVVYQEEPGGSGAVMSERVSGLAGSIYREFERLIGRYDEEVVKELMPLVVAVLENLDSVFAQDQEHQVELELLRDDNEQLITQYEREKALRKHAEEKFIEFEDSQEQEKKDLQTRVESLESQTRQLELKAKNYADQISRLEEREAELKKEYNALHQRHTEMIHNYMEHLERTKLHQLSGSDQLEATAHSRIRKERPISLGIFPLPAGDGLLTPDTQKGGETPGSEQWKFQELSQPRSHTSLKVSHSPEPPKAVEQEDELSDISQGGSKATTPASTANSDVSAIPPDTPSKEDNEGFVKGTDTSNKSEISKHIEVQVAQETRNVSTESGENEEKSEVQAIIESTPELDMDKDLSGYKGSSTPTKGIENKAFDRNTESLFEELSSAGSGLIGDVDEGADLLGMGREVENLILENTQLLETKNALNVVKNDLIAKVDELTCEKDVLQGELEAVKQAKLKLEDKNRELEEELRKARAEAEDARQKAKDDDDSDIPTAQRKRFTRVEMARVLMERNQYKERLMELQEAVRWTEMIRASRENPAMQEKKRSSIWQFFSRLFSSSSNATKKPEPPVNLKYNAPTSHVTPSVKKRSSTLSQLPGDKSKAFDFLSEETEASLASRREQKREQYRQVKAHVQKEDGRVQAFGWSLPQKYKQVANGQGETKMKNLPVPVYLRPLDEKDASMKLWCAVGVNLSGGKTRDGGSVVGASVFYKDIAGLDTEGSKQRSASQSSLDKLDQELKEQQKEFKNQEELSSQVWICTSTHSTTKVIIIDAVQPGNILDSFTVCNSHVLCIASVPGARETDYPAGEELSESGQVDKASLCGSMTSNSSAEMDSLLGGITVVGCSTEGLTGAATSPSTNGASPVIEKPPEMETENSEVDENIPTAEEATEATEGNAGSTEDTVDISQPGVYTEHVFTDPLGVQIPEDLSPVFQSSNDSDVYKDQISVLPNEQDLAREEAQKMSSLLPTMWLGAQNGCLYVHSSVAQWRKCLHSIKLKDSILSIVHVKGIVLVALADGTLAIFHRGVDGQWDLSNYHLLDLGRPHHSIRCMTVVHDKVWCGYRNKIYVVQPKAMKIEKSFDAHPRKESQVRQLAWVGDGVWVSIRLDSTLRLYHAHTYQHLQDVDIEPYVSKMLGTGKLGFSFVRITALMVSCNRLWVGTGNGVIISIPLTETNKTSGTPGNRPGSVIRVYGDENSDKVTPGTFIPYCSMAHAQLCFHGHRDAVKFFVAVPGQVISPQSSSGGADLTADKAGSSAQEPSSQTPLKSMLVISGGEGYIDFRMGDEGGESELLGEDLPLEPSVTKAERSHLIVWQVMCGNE

For the substance “Leucine-rich repeat serine/threonine-protein kinase 2 (Homo sapiens), Q5S007 G2019S”, the “effect of a mutation on the interaction” value is “increasing interaction”. On to “Leucine-rich repeat serine/threonine-protein kinase 2 (Homo sapiens), Q5S007 I2020T”, for which the “effect of a mutation on the interaction” value is recorded as “increasing interaction”.

Take “Leucine-rich repeat serine/threonine-protein kinase 2 (Homo sapiens), Q5S007 R1441C”: the “effect of a mutation on the interaction” value is given as “increasing interaction”. In the case of “Leucine-rich repeat serine/threonine-protein kinase 2 (Homo sapiens), Q5S007 Y1699C”, the “effect of a mutation on the interaction” value is “decreasing interaction”.

The values above are taken from IntAct's records for PubMed 20173330.
